T1: GST-OsARF12 DBD (Oryza sativa (cDNA of ZH11), UniProt Q0J951 121-247)
T1 sequence: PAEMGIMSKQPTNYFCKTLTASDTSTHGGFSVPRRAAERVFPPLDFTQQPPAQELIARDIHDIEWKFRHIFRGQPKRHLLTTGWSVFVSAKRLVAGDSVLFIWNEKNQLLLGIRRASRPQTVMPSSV


Biological target: T1, GST-OsARF12 DBD
Assay: EMSA; LightShift Chemiluminescent EMSA Kit (Thermo Scientific); buffer, salt, pH and temperature not stated
Conditions: protein: recombinant, tags: GST (N-terminal, pGEX-4T-1), blunt

Binder	binding result (label: biotin as probe)	binding result (label: biotin)
OsWRKY13 AuxRE mutant probe (mCold) (dsDNA) DNA 1: GTTACACCGAAAAAAGCTCACGGAT DNA 2: ATCCGTGAGCTTTTTTCGGTGTAAC	no binding	–
OsWRKY13 promoter AuxRE probe (dsDNA) DNA 1: TGGTTCGTGATTAAGGGTTTGGTTACACCGTGTCCCGCTCACGGATAGGCTGCTTAATTCTCTTT DNA 2: AAAGAGAATTAAGCAGCCTATCCGTGAGCGGGACACGGTGTAACCAAACCCTTAATCACGAACCA	–	binds
